Results taken from patent US20220332835A1 (SHANGHAITECH UNIVERSITY, published 2022).
Numbering of substitutions follows the chain as printed. Blank lines part the entries; values can stand above or below the molecule they belong to.

Columns and labels:
[1] = biological target: T1, human CXCR2 (hCXCR2) on cells (human, UniProt P25025 1-360); assay: cell-based or functional assay
T1 sequence (looked up): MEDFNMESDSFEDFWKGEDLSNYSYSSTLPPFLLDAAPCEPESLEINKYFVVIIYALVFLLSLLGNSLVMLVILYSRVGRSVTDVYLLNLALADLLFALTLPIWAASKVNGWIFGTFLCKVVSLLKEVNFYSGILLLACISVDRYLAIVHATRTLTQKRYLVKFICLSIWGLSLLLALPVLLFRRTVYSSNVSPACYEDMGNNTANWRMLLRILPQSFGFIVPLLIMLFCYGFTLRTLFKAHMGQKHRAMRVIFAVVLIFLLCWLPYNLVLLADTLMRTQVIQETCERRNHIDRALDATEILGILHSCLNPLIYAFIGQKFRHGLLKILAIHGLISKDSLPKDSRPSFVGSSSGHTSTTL

[2] = biological target: pepN48 (peptide of the 48 N-terminal extracellular amino acids of human CXCR2) (human); assay: SPR, Biacore
[3] = biological target: hCXCR2-mCherry (human CXCR2 fused with mCherry, on U2OS cells) (human) (UniProt P25025); assay: flow cytometry, U2OS cells with hCXCR2-mCherry (ECD-A axis), antibody staining on the FITC-A axis; other quadrants UL 1.80%, LL 33.80%, LR 18.24%
pepN9-19 = biological target: T2, pepN9-19 (human); assay: binding to truncated synthetic peptides (FIG. 9); method not named
T2 construct: Synthetic peptide, residues 9-19 of human CXCR2 (DSFEDFWKGED); also called NT9-19; pep9-19
T2 peptide: DSFEDFWKGED

pepN48Δ9-19 = biological target: T3, pepN48Δ9-19 (human); assay: as above
T3 construct: pepN48 with residues 9-19 deleted; also called pepN48 lacking 9-19 aa
T3 peptide: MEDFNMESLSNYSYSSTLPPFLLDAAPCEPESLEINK

rCXCR2-mCherry = biological target: T4, rCXCR2-mCherry (rat, UniProt P35407 1-359); assay: FACS on transfected U2OS cells
T4 construct: whole, on cells; Overexpressed in U2OS cells; also called CXCR2 of rat; not shown: mCherry fluorescent tag
T4 sequence (looked up): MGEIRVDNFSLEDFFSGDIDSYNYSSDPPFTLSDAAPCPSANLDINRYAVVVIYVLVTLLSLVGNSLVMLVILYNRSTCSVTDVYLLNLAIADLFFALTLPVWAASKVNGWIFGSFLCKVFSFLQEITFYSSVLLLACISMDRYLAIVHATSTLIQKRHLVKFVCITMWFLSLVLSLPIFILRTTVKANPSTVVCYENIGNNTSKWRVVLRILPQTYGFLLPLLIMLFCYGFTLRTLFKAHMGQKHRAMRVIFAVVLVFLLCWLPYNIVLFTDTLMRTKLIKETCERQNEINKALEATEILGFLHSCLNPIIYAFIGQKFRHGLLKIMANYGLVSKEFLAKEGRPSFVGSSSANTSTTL

rbCXCR2-mCherry = biological target: T5, rbCXCR2-mCherry (rabbit, UniProt P35344 1-358); assay: FACS on transfected U2OS cells
T5 construct: whole, on cells; Overexpressed in U2OS cells; also called rabbitCXCR2; CXCR2 of rabbit; not shown: mCherry fluorescent tag
T5 sequence (looked up): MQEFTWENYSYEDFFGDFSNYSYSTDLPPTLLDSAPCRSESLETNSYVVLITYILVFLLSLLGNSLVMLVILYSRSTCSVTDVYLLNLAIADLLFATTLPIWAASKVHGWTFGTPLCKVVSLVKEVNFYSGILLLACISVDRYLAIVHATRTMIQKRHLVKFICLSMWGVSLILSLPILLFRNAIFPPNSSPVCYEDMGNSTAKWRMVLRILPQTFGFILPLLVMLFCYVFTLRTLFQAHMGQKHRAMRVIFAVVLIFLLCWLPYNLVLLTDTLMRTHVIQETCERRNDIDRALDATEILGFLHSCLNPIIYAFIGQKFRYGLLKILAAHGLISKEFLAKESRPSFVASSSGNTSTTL

[4] = biological target: T6, pepN48 (peptide of the 48 N-terminal extracellular amino acids of human CXCR2) (human, biotin labeled on its N-terminus (panning, ELISA, SPR)); assay: SPR, Biacore T200; biotinylated pepN48 on SA chip;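 also: antibodies flowed in HBS-EP+ running buffer over the immobilized antigen at 0.5 to 10 nM, kinetic traces fitted to a protein-protein interaction model to derive constants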
T6 construct: Synthetic; also called N-terminus of CXCR2
T6 peptide: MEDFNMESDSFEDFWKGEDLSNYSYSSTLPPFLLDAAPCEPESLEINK

hCXCR1-mCherry = biological target: T7, hCXCR1-mCherry (human, UniProt P25024 1-350); assay: FACS on transfected U2OS cells (also immunofluorescence)
T7 construct: whole, on cells; Overexpressed in U2OS cells; not shown: mCherry fluorescent tag
T7 sequence (looked up): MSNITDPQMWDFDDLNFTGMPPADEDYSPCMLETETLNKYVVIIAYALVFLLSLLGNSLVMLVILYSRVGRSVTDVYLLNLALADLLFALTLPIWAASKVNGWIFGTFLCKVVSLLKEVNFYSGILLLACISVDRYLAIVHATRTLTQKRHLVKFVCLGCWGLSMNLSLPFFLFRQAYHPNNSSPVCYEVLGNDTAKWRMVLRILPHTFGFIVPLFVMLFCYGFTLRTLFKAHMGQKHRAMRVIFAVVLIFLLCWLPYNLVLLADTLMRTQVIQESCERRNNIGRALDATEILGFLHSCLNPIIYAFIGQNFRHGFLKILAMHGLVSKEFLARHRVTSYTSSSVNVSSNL

mCXCR2-mCherry = biological target: T8, mCXCR2-mCherry (mouse, UniProt P35343 1-359); assay: as above
T8 construct: whole, on cells; Overexpressed in U2OS cells; also called CXCR2 of mouse; not shown: mCherry fluorescent tag
T8 sequence (looked up): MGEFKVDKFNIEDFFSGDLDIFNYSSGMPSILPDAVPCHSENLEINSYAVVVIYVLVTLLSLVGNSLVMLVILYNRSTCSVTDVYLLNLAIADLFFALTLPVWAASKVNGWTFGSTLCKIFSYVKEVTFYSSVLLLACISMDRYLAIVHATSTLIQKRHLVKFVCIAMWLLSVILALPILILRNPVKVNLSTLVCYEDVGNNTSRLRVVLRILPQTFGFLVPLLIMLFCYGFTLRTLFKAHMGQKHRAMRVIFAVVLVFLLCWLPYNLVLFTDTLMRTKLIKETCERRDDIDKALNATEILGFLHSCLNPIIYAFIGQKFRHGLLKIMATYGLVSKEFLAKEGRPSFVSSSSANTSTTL

[5] = biological target: T6, pepN48 (peptide of the 48 N-terminal …); assay: SPR

β-arrestin recruitment, Tango assay, apparent EC50 [1]: 4.5 nM
Molecule: IL8 (from UniProt P10145 28-99) (ligand)

β-arrestin recruitment, Tango assay, apparent EC50 [1]: 5.3 nM
Molecule: GROα (CXCL1) (from UniProt P09341 35-107) (ligand)

Kd [2]: 2.6 nM | percent of cells in quadrant Q1-UR (FITC-A high and ECD-A high) [3]: 46.2%
B1: H8 (abN48) scFv combinatorial antibody (scFv, part only; not given: linker, domain order, IgG1 Fc, V domains shown, not shown: another chain or arm of the molecule; a dimerising Fc or GST; small tags and cut ends)
VH: QVQLVQSGAEVKKPGSSVKVSCKASGGTLSSYAISWVRQAPGQGPEWMGWINPNSGGTNYAQKFQGRVTMTRDTSISTAYMELSRLRPDDTAVYYCASGYCSSTSCYDYWGQGTLVTVSS
VL: QAVLTQPSSLSASPGASVSLTCTLRSGINVGAYRIYWYQQKPGSPPQFLLRYKSDSDKQQGSGVPSRFSGSRDASANAGILLISGLRSEDEADYYCAIWHSSAWVFGGGTQLTVL

binding result (pepN9-19): binds | binding result (pepN48Δ9-19): no binding
B2: abN48 Fab (Fab, V domains shown)
VH: B1 VH
VL: QAVLTQPSSLSASPGASVSLTCTLRSGINVGAYRIYWYQQKPGSPPQFLLRYKSDSDKQQGSGVPSRFSGSRDASANAGILLISGLRSEDEADYYCAIWHSSAWVFGGGTQLTVLG
notes: also called abN48 (Fab form); Fab form of abN48-IgG1

inhibition of GROα-induced (EC80) β-arrestin recruitment, Tango assay, apparent IC50 [1]: 4.7 nM | inhibition of GROα-induced (EC90) Ca2+ influx, FLIPR, IC50 [1]: 1000 nM | inhibition of IL8-induced (EC80) β-arrestin recruitment, Tango assay, apparent IC50 [1]: 2.8 nM | inhibition of IL8-induced (EC90) Ca2+ influx, FLIPR, IC50 [1]: 190 nM | binding result (rCXCR2-mCherry): no binding (tested: 2 µg/mL) | binding result (rbCXCR2-mCherry): no binding (tested: 2 µg/mL) | Kd [4]: 0.78 nM | koff [4]: 0.00035 s⁻¹ | kon [4]: 350000 M⁻¹ s⁻¹ | binding result (hCXCR1-mCherry): no binding (tested: 2 µg/mL) | binding result (mCXCR2-mCherry): no binding (tested: 2 µg/mL)
B3: abN48-IgG1 (antibody, V domains shown)
VH: B1 VH
VL: B2 VL
notes: also called full-length abN48

Kd [4]: 0.012 nM | koff [4]: 0.00015 s⁻¹ | kon [4]: 1.3e+07 M⁻¹ s⁻¹
B4: abN48-7 (antibody, V domains shown)
VH: B1 VH with S102G, S103R, T104A, S105R, Y107T, D108S, Y109F
VL: B2 VL
notes: format as tested not clearly stated

Kd [4]: 0.21 nM | koff [4]: 1.8e-05 s⁻¹ | kon [4]: 85000 M⁻¹ s⁻¹
B5: abN48-6 (antibody, V domains shown)
VH: B1 VH with S103P, T104S, S105G, D108V
VL: B2 VL
notes: as for B4

Kd [4]: 0.016 nM | koff [4]: 2e-05 s⁻¹ | kon [4]: 1.2e+06 M⁻¹ s⁻¹
B6: abN48-8 (antibody, V domains shown)
VH: B1 VH with S103R, T104S, S105R
VL: B2 VL
notes: as for B4

Kd [4]: 0.63 nM | koff [4]: 0.00016 s⁻¹ | kon [4]: 360000 M⁻¹ s⁻¹
B7: abN48-3 (antibody, V domains shown)
VH: B1 VH with S103F, T104A, S105I, Y107F, Y109S
VL: B2 VL
notes: as for B4

Kd [4]: ≤ 0.0012 nM | koff [4]: ≤ 1e-06 s⁻¹ | kon [4]: 810000 M⁻¹ s⁻¹
B8: abN48-5 (antibody, V domains shown)
VH: B1 VH with S103R, T104F, S105N, Y107K
VL: B2 VL
notes: as for B4

Kd [4]: 0.031 nM | koff [4]: 1.6e-05 s⁻¹ | kon [4]: 520000 M⁻¹ s⁻¹
B9: abN48-4 (antibody, V domains shown)
VH: B1 VH with S102N, S103R, S105R, Y109H
VL: B2 VL
notes: as for B4

fold improvement of KD against abN48-IgG1 [5]: 100 fold | inhibition of GROα-induced (EC80) β-arrestin recruitment, Tango assay, apparent IC50 [1]: 0.37 nM | inhibition of GROα-induced (EC90) Ca2+ influx, FLIPR, IC50 [1]: 110 nM | inhibition of IL8-induced (EC80) β-arrestin recruitment, Tango assay, apparent IC50 [1]: 0.9 nM | inhibition of IL8-induced (EC90) Ca2+ influx, FLIPR, IC50 [1]: 44 nM | partial agonist effect on Ca2+ influx, FLIPR, apparent EC50 [1]: 310 nM | binding result (rCXCR2-mCherry): no binding (tested: 2 µg/mL) | binding result (rbCXCR2-mCherry): no binding (tested: 2 µg/mL) | Kd [4]: 0.0072 nM | binding result (hCXCR1-mCherry): no binding (tested: 2 µg/mL) | binding result (mCXCR2-mCherry): no binding (tested: 2 µg/mL)
B10: abN48-2-IgG1 (antibody, V domains shown)
VH: B1 VH with S103R, S105R
VL: B2 VL
notes: Full-length human IgG1, lambda light chain; also called ab48-2-IgG1; abN48-2-IgG2 (as misprinted)

binding result (pepN9-19): binds | binding result (pepN48Δ9-19): no binding
B11: abN48-2 Fab (Fab, V domains shown)
VH: B1 VH with S103R, S105R
VL: B2 VL
notes: Made as abN48 Fab ('following a similar protocol'); also called abN48-2 (Fab form); Fab form of abN48-2-IgG2 (so in the source)

Kd [4]: 0.26 nM | koff [4]: 6.4e-05 s⁻¹ | kon [4]: 250000 M⁻¹ s⁻¹
B12: abN48-1 (antibody, V domains shown)
VH: B1 VH with Y100F, S102T, S103R, S105I, Y107F, D108V
VL: B2 VL
notes: Format as tested not clearly stated (sub-cloned to pFuse vector, expressed in HEK293T)
